These results are taken from PMC11787620 (iScience, 2025).

This series deals with the molecule itself. The series can be described thus: SEC. For orientation: In gel filtration, larger molecules generally elute earlier.

B1: LexAPaS125A (full-length P. aeruginosa LexA carrying the S125A mutation in the catalytic dyad) (natural protein, Pseudomonas aeruginosa (ATCC 27853), UniProt P37452 1-204, looked up)
chain: MQKLTPRQAEILSFIKRCLEDHGFPPTRAEIAQELGFKSPNAAEEHLKALARKGAIEMTPGASRGIRIPGFEPHAANDDEGLPVIGRVAAGAPILAEQNIEESCRINPAFFNPRADYLLRVRGMAMKDIGILDGDLLAVHVTREARNGQVVVARIGEEVTVKRFKREGSKVWLLAENPEFAPIEVDLKEQELIIEGLSVGVIRR
In general, stoichiometry N refers to the number of molecules, sites or subunits per partner or assembly. As for B1, the “stoichiometry N” value came out at 2.

B2: LexAPa^CTD G91D (LexAPa C-terminal domain, Gly81 to Arg204, with the inactivating G91D mutation on the cleavage site) (domain or fragment, Pseudomonas aeruginosa (ATCC 27853), UniProt P37452 81-204, looked up)
chain: GLPVIGRVAADAPILAEQNIEESCRINPAFFNPRADYLLRVRGMSMKDIGILDGDLLAVHVTREARNGQVVVARIGEEVTVKRFKREGSKVWLLAENPEFAPIEVDLKEQELIIEGLSVGVIRR
Turning to B2, the “stoichiometry N” value is 2.
